From patent publication US20140178378A1

Molecular target: IL-6/sIL-6R complex
Test: cell-based or functional assay

Question: With “wild type sgp130Fc (from UniProt P40189 23-619) (Fc fusion)” as the substance, how does the IC50, inhibition of IL-6/sIL-6R-induced proliferation of BAF3/gp130 cells (MTS cell viability assay, 3 days) read?
Answer: 800 ng/mL
